B1: bispecific tetravalent antibody recognizing Ang-2 and VEGF-A of Example 1 (<VEGF> VH-CL fused via (G4S)4-connector to the C-terminus of the <Ang-2> heavy chain) (bispecific antibody, human IgG1, kappa)
heavy: not shown
light: QPGLTQPPSVSVAPGQTARITCGGNNIGSKSVHWYQQKPGQAPVLVVYDDSDRPSGIPERFSGSNSGNTATLTISRVEAGDEADYYCQVWDSSSDHYVFGTGTKVTVLRTVAAPSVFIFPPSDEQLKSGTASVVCLLNNFYPREAKVQWKVDNALQSGNSQESVTEQDSKDSTYSLSSTLTLSKADYEKHKVYACEVTHQGLSSPVTKSFNRGEC
chain: DIQMTQSPSSLSASVGDRVTITCSASQDISNYLNWYQQKPGKAPKVLIYFTSSLHSGVPSRFSGSGSGTDFTLTISSLQPEDFATYYCQQYSTVPWTFGQGTKVEIKSSASTKGPSVFPLAPSSKSTSGGTAALGCLVKDYFPEPVTVSWNSGALTSGVHTFPAVLQSSGLYSLSSVVTVPSSSLGTQTYICNVNHKPSNTKVDKKVEPKSC
notes: Tetravalent, expressed in HEK293F from three plasmids; also called bispecific tetravalent <VEGF-Ang-2> antibody; <Ang-2, VEGF> bispecific tetravalent antibody
B2: bispecific tetravalent antibody recognizing Ang-2 and VEGF-A of Example 2 (<VEGF> VH-CL fused via (G4S)4-connector to the N-terminus of the <Ang-2> heavy chain) (bispecific antibody, human IgG1, kappa)
heavy: not shown
light: B1 light
chain: B1 chain
notes: as for B1
B3: bispecific tetravalent antibody recognizing Ang-2 and VEGF-A of Example 3 (<Ang-2> VH-CH1 fused via (G4S)4-connector to the C-terminus of the heavy chain of a … (bispecific antibody)
heavy: not shown
light: B1 light
chain: B1 chain
notes: as for B1

These binders were tested against T1, recombinant human VEGF165 (full-length VEGF165-His protein, R&D Systems; rhVEGF, R&D Systems Cat.-No. 293-VE) (human, UniProt P15692-4 27-191) (assay: ELISA and Biacore (SPR), including simultaneous binding (bridging ELISA, SPR sandwich)).
T1 construct: The ELISA method names 'full-length VEGF165-His protein', and the Biacore method names rhVEGF (R&D 293-VE); also called VEGF-A
T1 sequence (P15692 other isoform, or with tags, fused parts or gaps limits assumed): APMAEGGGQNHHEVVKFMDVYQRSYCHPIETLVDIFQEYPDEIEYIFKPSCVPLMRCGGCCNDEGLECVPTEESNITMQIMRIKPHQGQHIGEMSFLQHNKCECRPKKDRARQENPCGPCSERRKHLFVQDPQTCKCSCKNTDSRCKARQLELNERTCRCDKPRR
Protocol: Unbound Streptavidin-POD conjugate is washed away with three-six times 300 μl PBST (0.2% Tween 20) and bound Strepatavidin-POD conjugate is detected by addition of 100 μL ABTS/well. Determination of absorbance is performed on a Tecan Fluor Spectrometer at a measurement wavelength of 405 nm (reference wavelength 492 nm).
In order to further corroborate the data from the bridging ELISA an additional assay is established to confirm simultaneous binding to VEGF and Ang-2 using surface plasmon resonance technology on a Biacore T100 instrument according to the following protocol and analyzed using the T100 software package (T100 Control, Version 2.01, T100 Evaluation, Version 2.01, T100 Kinetics Summary, Version 1.01): Ang-2 is captured with a capture level of 2000-1700 RU in PBS, 0.005% (v/v) Tween20 running buffer via a PentaHisAntibody (PentaHis-Ab BSA-free, Qiagen No. 34660) that is immobilized on a CM5 chip via amine coupling (BSA-free). HBS-N buffer served as running buffer during coupling, activation is done by mixture of EDC/NHS. The PentaHis-Ab BSA-free Capture-Antibody is diluted in coupling buffer NaAc, pH 4.5, c=30 μg/mL, finally still activated carboxyl groups are blocked by injection of 1 M Ethanolamine; ligand densities of 5000 and 17000 RU are tested. Ang-2 with a concentration of 500 nM is captured by the PentaHis-Ab at a flow of 5 μL/min diluted with running buffer+1 mg/mL BSA. […] For this sake, the bispecific tetravalent <VEGF-Ang-2> antibody is bound to Ang-2 at a flow of 50 μL/min and a concentration of 100 nM, diluted with running buffer+1 mg/mL BSA and simultaneous binding is detected by incubation with VEGF (rhVEGF, R&D-Systems Cat.-No, 293-VE) in PBS+0.005% (v/v) Tween20 running buffer at a flow of 50 μL/min and a VEGF concentration of 150 nM. Association time 120 sec, dissociation time 1200 sec. Regeneration is done after each cycle at a flow of 50 μL/min with 2×10 mM Glycin pH 2.0 and a contact time of 60 sec. […] Blanks for each Ab are measured with rhVEGF concentration “0”.

| Binder | binding result |
| --- | --- |
| B1 | binds |
| B2 | binds |
| B3 | binds |

From patent US20100316645A1 (Hoffmann-La Roche, published 2010)
